Test results published in the supplement of paper PMC12855868.

B1: library; numbered along this chain (parent)
chain: MAAAGGARLLRAASAVLGGPAGRWLHHAGSRAGSSGLLRNRGPGGSAEASRSLSVSARARSSSEDKITVHFINRDGETLTTKGKVGDSLLDVVVENNLDIDGFGACEGTLACSTCHLIFEDHIYEKLDAITDEENDMLDLAYGLTDRSRLGCQICLTKSMDNMTVRVPETVADARQSIDVGKTS

Variants of: B1
Test: scaled log2 fold change in cell abundance, elesclomol vs control (0 = silent mean, 1 = nonsense mean) (scaled log2 ratio); higher = higher viability under elesclomol (loss of FDX1 cuproptosis function)
Conditions: glucose 10 mM
[1] = with ABC1 FDX1 KO, elesclomol 5 nM, 14 days
[2] = with HEK293T FDX1 KO, elesclomol 40 nM, 11 days
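Also: variant abundance is its share of total variant reads in each endpoint sample, from next-generation sequencing of the integrated ORF PCR-amplified out of genomic DNA.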

Variant: MAAAGGARLLRAASAVLGGPAGRWLHHAGSRAGSSGLLRNRGPGGSAEASRSLSVSAIARSSSEDKITVHFINRDGETLTTKGKVGDSLLDVVVENNLDIDGFGACEGTLACSTCHLIFEDHIYEKLDAITDEENDMLDLAYGLTDRSRLGCQICLTKSMDNMTVRVPETVADARQSIDVGKTS [R58I]
- scaled log2 fold change [1]: -0.339
- scaled log2 fold change [2]: 0.608

Variant: MAAAGGARLLRAASAVLGGPAGRWLHHAGSRAGSSGLLRNRGPGGSAEASRSLSVSAKARSSSEDKITVHFINRDGETLTTKGKVGDSLLDVVVENNLDIDGFGACEGTLACSTCHLIFEDHIYEKLDAITDEENDMLDLAYGLTDRSRLGCQICLTKSMDNMTVRVPETVADARQSIDVGKTS [R58K]
- scaled log2 fold change [1]: 0.151
- scaled log2 fold change [2]: -0.231

Variant: MAAAGGARLLRAASAVLGGPAGRWLHHAGSRAGSSGLLRNRGPGGSAEASRSLSVSAHARSSSEDKITVHFINRDGETLTTKGKVGDSLLDVVVENNLDIDGFGACEGTLACSTCHLIFEDHIYEKLDAITDEENDMLDLAYGLTDRSRLGCQICLTKSMDNMTVRVPETVADARQSIDVGKTS [R58H]
- scaled log2 fold change [1]: 0.4
- scaled log2 fold change [2]: -0.194

Variant: MAAAGGARLLRAASAVLGGPAGRWLHHAGSRAGSSGLLRNRGPGGSAEASRSLSVSAAARSSSEDKITVHFINRDGETLTTKGKVGDSLLDVVVENNLDIDGFGACEGTLACSTCHLIFEDHIYEKLDAITDEENDMLDLAYGLTDRSRLGCQICLTKSMDNMTVRVPETVADARQSIDVGKTS [R58A]
- scaled log2 fold change [1]: 0.173
- scaled log2 fold change [2]: 0.434

Variant: MAAAGGARLLRAASAVLGGPAGRWLHHAGSRAGSSGLLRNRGPGGSAEASRSLSVSAFARSSSEDKITVHFINRDGETLTTKGKVGDSLLDVVVENNLDIDGFGACEGTLACSTCHLIFEDHIYEKLDAITDEENDMLDLAYGLTDRSRLGCQICLTKSMDNMTVRVPETVADARQSIDVGKTS [R58F]
- scaled log2 fold change [1]: -0.105
- scaled log2 fold change [2]: -0.229

Variant: MAAAGGARLLRAASAVLGGPAGRWLHHAGSRAGSSGLLRNRGPGGSAEASRSLSVSAEARSSSEDKITVHFINRDGETLTTKGKVGDSLLDVVVENNLDIDGFGACEGTLACSTCHLIFEDHIYEKLDAITDEENDMLDLAYGLTDRSRLGCQICLTKSMDNMTVRVPETVADARQSIDVGKTS [R58E]
- scaled log2 fold change [1]: -0.288
- scaled log2 fold change [2]: -0.142

Variant: MAAAGGARLLRAASAVLGGPAGRWLHHAGSRAGSSGLLRNRGPGGSAEASRSLSVSAGARSSSEDKITVHFINRDGETLTTKGKVGDSLLDVVVENNLDIDGFGACEGTLACSTCHLIFEDHIYEKLDAITDEENDMLDLAYGLTDRSRLGCQICLTKSMDNMTVRVPETVADARQSIDVGKTS [R58G]
- scaled log2 fold change [1]: -0.484
- scaled log2 fold change [2]: 0.743

Variant: MAAAGGARLLRAASAVLGGPAGRWLHHAGSRAGSSGLLRNRGPGGSAEASRSLSVSACARSSSEDKITVHFINRDGETLTTKGKVGDSLLDVVVENNLDIDGFGACEGTLACSTCHLIFEDHIYEKLDAITDEENDMLDLAYGLTDRSRLGCQICLTKSMDNMTVRVPETVADARQSIDVGKTS [R58C]
- scaled log2 fold change [1]: 0.0658
- scaled log2 fold change [2]: -0.099

Variant: MAAAGGARLLRAASAVLGGPAGRWLHHAGSRAGSSGLLRNRGPGGSAEASRSLSVSADARSSSEDKITVHFINRDGETLTTKGKVGDSLLDVVVENNLDIDGFGACEGTLACSTCHLIFEDHIYEKLDAITDEENDMLDLAYGLTDRSRLGCQICLTKSMDNMTVRVPETVADARQSIDVGKTS [R58D]
- scaled log2 fold change [1]: -0.139
- scaled log2 fold change [2]: -0.303

Variant: MAAAGGARLLRAASAVLGGPAGRWLHHAGSRAGSSGLLRNRGPGGSAEASRSLSVSSRARSSSEDKITVHFINRDGETLTTKGKVGDSLLDVVVENNLDIDGFGACEGTLACSTCHLIFEDHIYEKLDAITDEENDMLDLAYGLTDRSRLGCQICLTKSMDNMTVRVPETVADARQSIDVGKTS [A57S]
- scaled log2 fold change [1]: 0.247
- scaled log2 fold change [2]: 0.0851

Variant: MAAAGGARLLRAASAVLGGPAGRWLHHAGSRAGSSGLLRNRGPGGSAEASRSLSVSTRARSSSEDKITVHFINRDGETLTTKGKVGDSLLDVVVENNLDIDGFGACEGTLACSTCHLIFEDHIYEKLDAITDEENDMLDLAYGLTDRSRLGCQICLTKSMDNMTVRVPETVADARQSIDVGKTS [A57T]
- scaled log2 fold change [1]: 0.0138
- scaled log2 fold change [2]: -0.39

Variant: MAAAGGARLLRAASAVLGGPAGRWLHHAGSRAGSSGLLRNRGPGGSAEASRSLSVSQRARSSSEDKITVHFINRDGETLTTKGKVGDSLLDVVVENNLDIDGFGACEGTLACSTCHLIFEDHIYEKLDAITDEENDMLDLAYGLTDRSRLGCQICLTKSMDNMTVRVPETVADARQSIDVGKTS [A57Q]
- scaled log2 fold change [1]: 0.12
- scaled log2 fold change [2]: -0.354

Variant: MAAAGGARLLRAASAVLGGPAGRWLHHAGSRAGSSGLLRNRGPGGSAEASRSLSVSVRARSSSEDKITVHFINRDGETLTTKGKVGDSLLDVVVENNLDIDGFGACEGTLACSTCHLIFEDHIYEKLDAITDEENDMLDLAYGLTDRSRLGCQICLTKSMDNMTVRVPETVADARQSIDVGKTS [A57V]
- scaled log2 fold change [1]: -0.164
- scaled log2 fold change [2]: 0.356

Variant: MAAAGGARLLRAASAVLGGPAGRWLHHAGSRAGSSGLLRNRGPGGSAEASRSLSVSYRARSSSEDKITVHFINRDGETLTTKGKVGDSLLDVVVENNLDIDGFGACEGTLACSTCHLIFEDHIYEKLDAITDEENDMLDLAYGLTDRSRLGCQICLTKSMDNMTVRVPETVADARQSIDVGKTS [A57Y]
- scaled log2 fold change [1]: -0.233
- scaled log2 fold change [2]: 0.129

Variant: MAAAGGARLLRAASAVLGGPAGRWLHHAGSRAGSSGLLRNRGPGGSAEASRSLSVSRRARSSSEDKITVHFINRDGETLTTKGKVGDSLLDVVVENNLDIDGFGACEGTLACSTCHLIFEDHIYEKLDAITDEENDMLDLAYGLTDRSRLGCQICLTKSMDNMTVRVPETVADARQSIDVGKTS [A57R]
- scaled log2 fold change [1]: 0.224
- scaled log2 fold change [2]: 0.591

Variant: MAAAGGARLLRAASAVLGGPAGRWLHHAGSRAGSSGLLRNRGPGGSAEASRSLSVSWRARSSSEDKITVHFINRDGETLTTKGKVGDSLLDVVVENNLDIDGFGACEGTLACSTCHLIFEDHIYEKLDAITDEENDMLDLAYGLTDRSRLGCQICLTKSMDNMTVRVPETVADARQSIDVGKTS [A57W]
- scaled log2 fold change [1]: -0.231
- scaled log2 fold change [2]: 0.0227
